This note sets out measurements from PMC8476561 (2021).

This experiment addresses SARS-CoV-2 RBD (wild type) (SARS-CoV-2, UniProt P0DTC2 319-541). The experiment in a line: SPR.

Where only a bound is given, the exact number is not on record here.

B1: Mouse angiotensin-converting enzyme 2 (receptor)
chain: SLTEENAKTFLNNFNQEAEDLSYQSSLASWNYNTNITEENAQKMSEAAAKWSAFYEEQSKTAQSFSLQEIQTPIIKRQLQALQQSGSSALSADKNKQLNTILNTMSTIYSTGKVCNPKNPQECLLLEPGLDEIMATSTDYNSRLWAWEGWRAEVGKQLRPLYEEYVVLKNEMARANNYNDYGDYWRGDYEAEGADGYNYNRNQLIEDVERTFAEIKPLYEHLHAYVRRKLMDTYPSYISPTGCLPAHLLGDMWGRFWTNLYPLTVPFAQKPNIDVTDAMMNQGWDAERIFQEAEKFFVSVGLPHMTQGFWANSMLTEPADGRKVVCHPTAWDLGHGDFRIKMCTKVTMDNFLTAHHEMGHIQYDMAYARQPFLLRNGANEGFHEAVGEIMSLSAATPKHLKSIGLLPSDFQEDSETEINFLLKQALTIVGTLPFTYMLEKWRWMVFRGEIPKEQWMKKWWEMKREIVGVVEPLPHDETYCDPASLFHVSNDYSFIRYYTRTIYQFQFQEALCQAAKYNGSLHKCDISNSTEAGQKLLKMLSLGNSEPWTKALENVVGARNMDVKPLLNYFQPLFDWLKEQNRNSFVGWNTEWSPYADQSIKVRISLKSALGANAYEWTNNEMFLFRSSVAYAMRKYFSIIKNQTVPFLEEDVRVSDLKPRVSFYFFVTSPQNVSDVIPRSEVEDAIRMSRGRINDVFGLNDNSLEFLGIHPTLEPPYQPPV
Take B1: the Kd (as a rule, the equilibrium constant for the complex coming apart) is more than 1 mM.
